According to patent publication US20180118785A1 (University of Pennsylvania, published 2018):
Bridges are numbered along the chain shown (N, C = ends). [ ]: non-standard residue; d: D form. Bpa = N[C@@H](Cc1ccc(C(=O)c2ccccc2)cc1)C(=O)O; 1Nal = N[C@@H](Cc1cccc2ccccc12)C(=O)O; 2Nal = N[C@@H](Cc1ccc2ccccc2c1)C(=O)O; Igl = N[C@H](C(=O)O)C1Cc2ccccc2C1

B1: Ac-4Dht,9A-OH (peptide)
peptide: ICVXQDWGAHRCT
modifications: N-terminal acetyl; dihydrotryptophan (Dht) at position 4; free C-terminal acid (COOH); disulfide bond between the two Cys residues
B2: +G,4W,9A + AN-OH (peptide)
peptide: H-GICVWQDWGAHRCTAN-OH
modifications: disulfide 3-13
SMILES: CC[C@H](C)[C@H](NC(=O)CN)C(=O)N[C@H]1CSSC[C@@H](C(=O)N[C@H](C(=O)N[C@@H](C)C(=O)N[C@@H](CC(N)=O)C(=O)O)[C@@H](C)O)NC(=O)[C@H](CCCNC(=N)N)NC(=O)[C@H](Cc2c[nH]cn2)NC(=O)[C@H](C)NC(=O)CNC(=O)[C@H](Cc2c[nH]c3ccccc23)NC(=O)[C@H](CC(=O)O)NC(=O)[C@H](CCC(N)=O)NC(=O)[C@H](Cc2c[nH]c3ccccc23)NC(=O)[C@H](C(C)C)NC1=O
B3: Ac-4Y,9A (peptide)
peptide: Ac-ICVYQDWGAHRCT-NH2
modifications: disulfide 2-12
SMILES: CC[C@H](C)[C@H](NC(C)=O)C(=O)N[C@H]1CSSC[C@@H](C(=O)N[C@H](C(N)=O)[C@@H](C)O)NC(=O)[C@H](CCCNC(=N)N)NC(=O)[C@H](Cc2c[nH]cn2)NC(=O)[C@H](C)NC(=O)CNC(=O)[C@H](Cc2c[nH]c3ccccc23)NC(=O)[C@H](CC(=O)O)NC(=O)[C@H](CCC(N)=O)NC(=O)[C@H](Cc2ccc(O)cc2)NC(=O)[C@H](C(C)C)NC1=O

The molecules below were run against complement component C3 (human, in normal human plasma) (human, UniProt P01024 23-1663) (assay: cell-based or functional assay).
In the case of Ac-ICV[Igl]QDWGAHRCT-OH (disulfide 2-12 (inferred)) [Ac-4IgI,9A-OH], the “Activity over Compstatin (inhibition of C3b/iC3b deposition on immunocomplexes in human plasma, compared by IC50)” value is reported as 55 fold over Compstatin. For B1, the “Activity over Compstatin (inhibition of C3b/iC3b deposition on immunocomplexes in human plasma, compared by IC50)” value was 9 fold over Compstatin. With Ac-ICV[Bpa]QDWGAHRCT-OH (disulfide 2-12 (inferred)) [Ac-4(Bpa),9A-OH] the “Activity over Compstatin (inhibition of C3b/iC3b deposition on immunocomplexes in human plasma, compared by IC50)” value was 55 fold over Compstatin. With B2 the “Activity over Compstatin (inhibition of C3b/iC3b deposition on immunocomplexes in human plasma, compared by IC50)” value was 38 fold over Compstatin. With B3 the “Activity over Compstatin (inhibition of C3b/iC3b deposition on immunocomplexes in human plasma, compared by IC50)” value was 19 fold over Compstatin. With Ac-ICV[2Nal]QDWGAHRCT-NH2 (disulfide 2-12 (inferred)) [Ac-4(2-Nal),9A] the “Activity over Compstatin (inhibition of C3b/iC3b deposition on immunocomplexes in human plasma, compared by IC50)” value was 66 fold over Compstatin. For Ac-ICV[2Nal]QDWGAHRCT-OH (disulfide 2-12 (inferred)) [Ac-4(2-Nal),9A-OH], the “Activity over Compstatin (inhibition of C3b/iC3b deposition on immunocomplexes in human plasma, compared by IC50)” value was 39 fold over Compstatin. With Ac-ICV[1Nal]QDWGAHRCT-OH (disulfide 2-12 (inferred)) [Ac-4(1-Nal),9A-OH] the “Activity over Compstatin (inhibition of C3b/iC3b deposition on immunocomplexes in human plasma, compared by IC50)” value was 23 fold over Compstatin. Ac-ICV[Igl]QDWGAHRCT-NH2 (disulfide 2-12 (inferred)) [Ac-4IgI,9A] was tested, and the “Activity over Compstatin (inhibition of C3b/iC3b deposition on immunocomplexes in human plasma, compared by IC50)” value was 55 fold over Compstatin.

What follows are molecules tested against complement component C3 (human, in normal human plasma) (human) (UniProt P01024) (assay: cell-based or functional assay).
Work on “Compstatin analog with Ile substituted for Thr at position 13 (peptide)” yielded a complement-inhibitory activity compared with Compstatin (fold over Compstatin) of 21.
